Measured values: patent US7846435 (TEIJIN, dated 2010)

What was measured:
[1] = biological target: T1, E. coli Verotoxin II (VT2) (E. coli, UniProt P09385 23-319; P09386 20-89)
T1 sequence 1: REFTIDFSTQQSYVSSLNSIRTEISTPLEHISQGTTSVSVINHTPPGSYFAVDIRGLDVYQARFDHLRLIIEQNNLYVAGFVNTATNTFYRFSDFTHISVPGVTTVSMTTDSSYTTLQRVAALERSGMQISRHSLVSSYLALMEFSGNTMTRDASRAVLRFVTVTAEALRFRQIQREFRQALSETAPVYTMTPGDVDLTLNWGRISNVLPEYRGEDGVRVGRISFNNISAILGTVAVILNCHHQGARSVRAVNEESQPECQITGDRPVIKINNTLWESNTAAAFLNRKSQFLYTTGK
T1 sequence 2: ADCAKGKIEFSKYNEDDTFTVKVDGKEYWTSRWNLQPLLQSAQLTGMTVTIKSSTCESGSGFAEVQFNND

[2] = biological target: T1, E. coli Verotoxin II (VT2); test: BIAcore (SPR)
[3] = biological target: VT2, VT2vx1 of E. coli 0157:H7 TK40 (E. coli); test: cell-based or functional assay

B1: humanized VTm1.1 antibody (HuVTm1.1) (antibody, V domains shown)
VH: EVQLVESGGGLVQPGGSLRLSCAASGFTFSSYGMSWVRQAPGKGLEWVATISTGGSYTYYPDSVKGRFTISRDNSKNTLYLQMNSLRAEDTAVYYCARRGDAWGNLDYWGQGTLVTVSS
VL: EIVLTQSPATLSVSPGERATLSCRASQTISNNLHWYQQKPGQAPRLLIKSASQSISGIPARFSGSGSGTDFTLTISSLESEDFAVYYCQQSYSWPLTFGQGTKVEIK
[1]
  factor of difference in competition compared to the mouse antibody: ≤ 2 fold
[2]
  Kd: 3.6 nM
  koff: 0.00034 s⁻¹
  kon: 95000 M⁻¹ s⁻¹
[3]
  ED50 (µg/ml), in vitro neutralizing assay: 0.35 µg/mL
